According to patent US20240209089A1:
Where a chain is given by its changes, count along the chain named.

B1: phage clone No. 24 (C24) (VHH)
VHH: QVQLVESGGGLVQPGGSLRLSCAASGPIFSINTMGWYRQAPGKQRELVATMHSTGSTNYADSVKGRFTISRDNAKKTVYLQMNSLKPDDTAVYYCHVDDTGWGTVDSWGQGIQVTVSS
B2: phage clone No. 30 (C30) (VHH)
VHH: B1 VHH with A23V, P27S, S30A, T50D, T77K, T100R, I112T
B3: phage clone No. 45 (C45) (VHH)
VHH: B1 VHH with A40V, I112T
B4: phage clone No. 70 (S22) (VHH)
VHH: B1 VHH with V2L, P27S, T100M, I112T
B5: phage clone No. 61 (S13) (VHH)
VHH: B1 VHH with V2L, A23V, A24V, P27S, S30A, T54Y, D88A, V97A, I112T
B6: phage clone No. 66 (S18) (VHH)
VHH: QLQLVESGGGLVQPGGSLRLSCAASGSIFSINTMGWYRQAPGKQRELVATMTSHGSTNYADSVKGRFTISRDNSKNTVYLQMNSLKLQDTAVYYCNANDMGWGTVDAWGQGTLVTVSS
B7: phage clone No. 53 (S5) (VHH)
VHH: QVQLVESGGGLVQAGGSLRVSCAASGGTFSSTAMGWFRQAPGKEREFVAAISWSGGYTYYADSVRGRFTISRDNALNTVSLQMNSLKPEDTAVYYCAADISGLDTVAAGIFTEPNIDYWGKGTLVTVSS
B8: phage clone No. 55 (S7) (VHH)
VHH: QLQLVESGGGLVQPGGSLRLSCAASGSIFSINGMGWYRQAPGKQREAVAVITSGGKIDYLDSVKGRFTISRDSAKNTVALQMNSLKPEDTAVYYCNAYGDVRRGEVRWGQGTQVTVSS
B9: phage clone No. 71 (S23) (VHH)
VHH: B8 VHH with L2V, A47L, V50A, I57T, R102Q
B10: phage clone No. 54 (S6) (VHH)
VHH: QVQLVESGGGLVQPGGSLRLSCAVSGTIFSINTMGWYRQVPGKQRELVATITSSGSTKYADSVKGRFTVSRDNAKRTVFLQMDSLKPEDTAVYYCHANDVGWGTVNAWGQGTLVTVSS
B11: phage clone No. 77 (S29) (VHH)
VHH: QLQLVESGGGLVQPGGSLRLSCTASGIIFSINTMGWYRQAPGKQRELVADISSFGSTNYADSVKGRFTISRDNAKNSVYLQMNSLKPEDTAVYYCNAHDKGWGTVDSWGQGTQVTVSS
B12: phage clone No. 37 (C37) (VHH)
VHH: QLQLVESGGGLVQAGGSLRLSCAASGLTFEDYAIGWFRQAPGKEREGISCIRIYDGNTYSAESVKGRFTISSDNAKNQVYLQINTLKPEDTAVYYCAAGSYYSCSVYPDYDMDYWGKGTLVTVSS
B13: phage clone No. 42 (C42) (VHH)
VHH: B12 VHH with L2V
B14: phage clone No. 2 (C2) (VHH)
VHH: B12 VHH with L2V, A14P, L27F, F29L, E30D, D31Y
B15: phage clone No. 27 (C27) (VHH)
VHH: QLQLVESGGGLVQPGGSLRLSCVVSGSIFAINTMGWYRQAPGKQRELVATMHSGGSTNYADSVKGRFTISRDAAPKTVYLQMNSLKPADTAVYYCHADDSGWGTVDSWGQGIQVTVSS
B16: phage clone No. 46 (C46) (VHH)
VHH: QVQLVESGGGLVQAGGSLRLSCAASGVTFDDLAIGWFRQVPGKGREGVSTIGTSDGTAYYADSVKGRFTISSDNAKNTVYLQMNSLKPEDTAVYYCAVDLDYGLGSLLPMGYDYWGQGTQVTVSS
B17: phage clone No. 29 (C29) (VHH)
VHH: QVQLVESGGGLVQAGGSLRLSCVASGFTSDDYVIGWFRQAPGKEREGVSCISSSDGTTNYADSVKGRFTISSDNAKNTVYLQMNSLKPEDTAVYYCAADPMRVCPYSGTYYGILGFGTSGQGTQVTVSS
B18: phage clone No. 20 (C20) (VHH)
VHH: QVQLVESGGGLVQPGGSLRLSCAASGSIFSINTMGWYRQAPGKQRELVATMHSTGSTNYADSVKGRFTISRDNAKKTVYLQMNSLEPDDTAVYYCHVDDTGWGTVDSWGQGTQVTVS

Target: Fc protein
Experiment: phage ELISA on coated Fc protein

**Q.** How did the OD450 turn out when B1 was run?
**A.** Its OD450 is 0.083.

**Q.** For B2, which OD450 is on record?
**A.** The OD450 was 0.103.

**Q.** B3 was tested. Which OD450 did it give?
**A.** Its OD450 is 0.115.

**Q.** Which OD450 does the source give for B4 here?
**A.** The OD450 was 0.059.

**Q.** B5 was tested. Which OD450 did it give?
**A.** Its OD450 is 0.094.

**Q.** B6 was tested. Which OD450 did it give?
**A.** Its OD450 is 0.081.

**Q.** For B7, which OD450 is on record?
**A.** Its OD450 is 0.068.

**Q.** For B8, which OD450 is on record?
**A.** Its OD450 is 0.059.

**Q.** With B9 as the binder, how does the OD450 read?
**A.** The OD450 was 0.093.

**Q.** With B10 as the binder, how does the OD450 read?
**A.** The OD450 was 0.058.

**Q.** Which OD450 does the source give for B11 here?
**A.** The OD450 was 0.08.

**Q.** B12 was tested. Which OD450 did it give?
**A.** The OD450 was 0.11.

**Q.** How did the OD450 turn out when B13 was run?
**A.** The OD450 was 0.111.

**Q.** For B14, which OD450 is on record?
**A.** The OD450 was 0.149.

**Q.** Which OD450 does the source give for B15 here?
**A.** Its OD450 is 0.084.

**Q.** Which OD450 does the source give for B16 here?
**A.** Its OD450 is 0.081.

**Q.** B17 was tested. Which OD450 did it give?
**A.** The OD450 was 0.115.

**Q.** Which OD450 does the source give for B18 here?
**A.** Its OD450 is 0.133.
